B1: β-glucosidase A (BglA) from Bacillus polymyxa, wild type (enzyme)
chain: TIFQFPQDFMWGTATAAYQIEGAYQEDGRGLSIWDTFAHTPGKVFNGDNGNVACDSYHRYEEDIRLMKELGIRTYRFSVSWPRIFPNGDGEVNQEGLDYYHRVVDLLNDNGIEPFCTLYHWDLPQALQDAGGWGNRRTIQAFVQFAETMFREFHGKIQHWLTFNEPWCIAFLSNMLGVHAPGLTNLQTAIDVGHHLLVAHGLSVRRFRELGTSGQIGIAPNVSWAVPYSTSEEDKAACARTISLHSDWFLQPIYQGSYPQFLVDWFAEQGATVPIQDGDMDIIGEPIDMIGINYYSMSVNRFNPEAGFLQSEEINMGLPVTDIGWPVESRGLYEVLHYLQKYGNIDIYITENGACINDEVVNGKVQDDRRISYMQQHLVQVHRTIHDGLHVKGYMAWSLLDNFEWAEGYNMRFGMIHVDFRTQVRTPKESYYWYRNVVSNNWLETRR
notes: β-glucosidase A (BglA, EC 3.2.1.21) from Bacillus polymyxa, family 1 glycosyl hydrolase; Plasmid pBglA; its vector and construct limits are not described; also called wild type enzyme; source: E. coli BL21 Star (DE3), purified (HisTrap, thrombin, HisTrap, gel filtration on Superdex 200)
B2: β-glucosidase A (BglA) from Bacillus polymyxa, N437D mutant (enzyme)
chain: TIFQFPQDFMWGTATAAYQIEGAYQEDGRGLSIWDTFAHTPGKVFNGDNGNVACDSYHRYEEDIRLMKELGIRTYRFSVSWPRIFPNGDGEVNQEGLDYYHRVVDLLNDNGIEPFCTLYHWDLPQALQDAGGWGNRRTIQAFVQFAETMFREFHGKIQHWLTFNEPWCIAFLSNMLGVHAPGLTNLQTAIDVGHHLLVAHGLSVRRFRELGTSGQIGIAPNVSWAVPYSTSEEDKAACARTISLHSDWFLQPIYQGSYPQFLVDWFAEQGATVPIQDGDMDIIGEPIDMIGINYYSMSVNRFNPEAGFLQSEEINMGLPVTDIGWPVESRGLYEVLHYLQKYGNIDIYITENGACINDEVVNGKVQDDRRISYMQQHLVQVHRTIHDGLHVKGYMAWSLLDNFEWAEGYNMRFGMIHVDFRTQVRTPKESYYWYRDVVSNNWLETRR
notes: β-glucosidase A (BglA, EC 3.2.1.21) from Bacillus polymyxa with N437D, made by site-directed mutagenesis of pBglA; Same construct as m1 apart from the mutation; source: E. coli BL21 Star (DE3), purified (HisTrap, thrombin, HisTrap, gel filtration on Superdex 200)
B3: β-glucosidase A (BglA) from Bacillus polymyxa, N437E mutant (enzyme)
chain: TIFQFPQDFMWGTATAAYQIEGAYQEDGRGLSIWDTFAHTPGKVFNGDNGNVACDSYHRYEEDIRLMKELGIRTYRFSVSWPRIFPNGDGEVNQEGLDYYHRVVDLLNDNGIEPFCTLYHWDLPQALQDAGGWGNRRTIQAFVQFAETMFREFHGKIQHWLTFNEPWCIAFLSNMLGVHAPGLTNLQTAIDVGHHLLVAHGLSVRRFRELGTSGQIGIAPNVSWAVPYSTSEEDKAACARTISLHSDWFLQPIYQGSYPQFLVDWFAEQGATVPIQDGDMDIIGEPIDMIGINYYSMSVNRFNPEAGFLQSEEINMGLPVTDIGWPVESRGLYEVLHYLQKYGNIDIYITENGACINDEVVNGKVQDDRRISYMQQHLVQVHRTIHDGLHVKGYMAWSLLDNFEWAEGYNMRFGMIHVDFRTQVRTPKESYYWYREVVSNNWLETRR
notes: β-glucosidase A (BglA, EC 3.2.1.21) from Bacillus polymyxa with N437E, made by site-directed mutagenesis of pBglA; Same construct as m1 apart from the mutation; source: E. coli BL21 Star (DE3), purified (HisTrap, thrombin, HisTrap, gel filtration on Superdex 200)

Target: the molecule itself
Experiment: SEC; gel filtration during purification (HiLoad 26/60 Superdex 200 prep-grade), 50 mM citrate phosphate buffer, pH 7; data not shown

First: B1
Second: B2
The “stoichiometry N” value of the first is higher: 8 for the first, 4 for the second.

For B3, the “stoichiometry N” value was 4.

Source: article PMC4231051, “Protein Thermal Stability Enhancement by Designing Salt Bridges: A Combined Computational and Experimental Study” (PLoS ONE, 2014)
